In paper PMC2818353 one finds fold increase of the interaction over the Smad1 peptide with only the PY motif data, which are given here for 1 substance.

The experiment has as its target YAP (WW1+WW2) protein fragment, recombinant 104-amino acid polypeptide. Kind of experiment: ITC.

With “Smad1 peptide extended to include S206 and S214 (unphosphorylated) and the PY motif”, the fold increase of the interaction over the Smad1 peptide with only the PY motif worked out at 2.5 fold.
